Reference: patent US20230357429A1 (JANUX THERAPEUTICS, published 2023)

The binders below were run against T1, TBD-1 wt (anti-TROP2 Fab, hRS7) (assay: competition ELISA, Fab on captured TROP2).
T1 construct: non-mutated Fab

| IC50 [µM] | Binder |
| --- | --- |
| 0.18 | VDFCGLYHWPICYQV (mask peptide for the TROP2 Fab) [Peptide-51] |
| 1.83 | VDFCALYHWPVCGL (mask peptide for the TROP2 Fab) [Peptide-61] |
| 3.49 | VDFCALYNWPVCAI (mask peptide for the TROP2 Fab) [Peptide-59] |
| 4.39 | VDFCYKYNWPICSR (mask peptide for the TROP2 Fab) [Peptide-55] |
| 10 | VDFCYMYKWPVCYP (mask peptide for the TROP2 Fab) [Peptide-48] |
| 0.27 | VDFCALYHWPICYQ (mask peptide for the TROP2 Fab) [Peptide-43] |
| 16.7 | IDFCYRYGWPVCQT (mask peptide for the TROP2 Fab) [Peptide-57] |
| 3.73 | IDFCLLYKWPVCEL (mask peptide for the TROP2 Fab) [Peptide-49] |
| 27.1 | VDFCYRYSWPVCWA (mask peptide for the TROP2 Fab) [Peptide-54] |
| 10.1 | VDFCYQYGWPICSRV (mask peptide for the TROP2 Fab) [Peptide-56] |
| 5.14 | VEFCAIYSWPICKI (mask peptide for the TROP2 Fab) [Peptide-46] |
| 0.56 | VDFCAIYSWPICKI (mask peptide for the TROP2 Fab) [Peptide-50] |
| 8.93 | IDFCRVYDWPVCSL (mask peptide for the TROP2 Fab) [Peptide-53] |

The binders below were run against T2, TBD-6 (LC I93A) (assay: competition ELISA, Fab on captured TROP2).
T2 construct: anti-TROP2 Fab, CDR3 LC alanine mutant

| IC50 [µM] | Binder |
| --- | --- |
| 0.42 | VDFCGLYHWPICYQV (mask peptide for the TROP2 Fab) [Peptide-51] |
| 1.19 | VDFCALYHWPVCGL (mask peptide for the TROP2 Fab) [Peptide-61] |
| 1.94 | VDFCALYNWPVCAI (mask peptide for the TROP2 Fab) [Peptide-59] |
| 3.12 | VDFCYKYNWPICSR (mask peptide for the TROP2 Fab) [Peptide-55] |
| 6.26 | VDFCYMYKWPVCYP (mask peptide for the TROP2 Fab) [Peptide-48] |
| 0.48 | VDFCALYHWPICYQ (mask peptide for the TROP2 Fab) [Peptide-43] |
| 12.7 | IDFCYRYGWPVCQT (mask peptide for the TROP2 Fab) [Peptide-57] |
| 2.25 | IDFCLLYKWPVCEL (mask peptide for the TROP2 Fab) [Peptide-49] |
| 23.4 | VDFCYRYSWPVCWA (mask peptide for the TROP2 Fab) [Peptide-54] |
| 5.62 | VDFCYQYGWPICSRV (mask peptide for the TROP2 Fab) [Peptide-56] |
| 5.18 | VEFCAIYSWPICKI (mask peptide for the TROP2 Fab) [Peptide-46] |
| 0.92 | VDFCAIYSWPICKI (mask peptide for the TROP2 Fab) [Peptide-50] |
| 4.51 | IDFCRVYDWPVCSL (mask peptide for the TROP2 Fab) [Peptide-53] |

The binders below were run against T3, TBD-11 (HC R98A) (assay: competition ELISA, Fab on captured TROP2).
T3 construct: anti-TROP2 Fab, CDR3 HC alanine mutant

| IC50 [µM] | Binder |
| --- | --- |
| 0.62 | VDFCGLYHWPICYQV (mask peptide for the TROP2 Fab) [Peptide-51] |
| 12.2 | VDFCALYHWPVCGL (mask peptide for the TROP2 Fab) [Peptide-61] |
| 7.55 | VDFCALYNWPVCAI (mask peptide for the TROP2 Fab) [Peptide-59] |
| 14 | VDFCYKYNWPICSR (mask peptide for the TROP2 Fab) [Peptide-55] |
| 31.3 | VDFCYMYKWPVCYP (mask peptide for the TROP2 Fab) [Peptide-48] |
| 0.87 | VDFCALYHWPICYQ (mask peptide for the TROP2 Fab) [Peptide-43] |
| 6.37 | IDFCLLYKWPVCEL (mask peptide for the TROP2 Fab) [Peptide-49] |
| 21 | VDFCYQYGWPICSRV (mask peptide for the TROP2 Fab) [Peptide-56] |
| 22.3 | VEFCAIYSWPICKI (mask peptide for the TROP2 Fab) [Peptide-46] |
| 1.97 | VDFCAIYSWPICKI (mask peptide for the TROP2 Fab) [Peptide-50] |
| 16.1 | IDFCRVYDWPVCSL (mask peptide for the TROP2 Fab) [Peptide-53] |

Each binder was assayed against T4, TBD-17 (HC S104A) (assay: competition ELISA, Fab on captured TROP2).
T4 construct: anti-TROP2 Fab, CDR3 HC alanine mutant

| IC50 [µM] | Binder |
| --- | --- |
| 0.55 | VDFCGLYHWPICYQV (mask peptide for the TROP2 Fab) [Peptide-51] |
| 1.83 | VDFCALYHWPVCGL (mask peptide for the TROP2 Fab) [Peptide-61] |
| 3.49 | VDFCALYNWPVCAI (mask peptide for the TROP2 Fab) [Peptide-59] |
| 7.21 | VDFCYKYNWPICSR (mask peptide for the TROP2 Fab) [Peptide-55] |
| 8.86 | VDFCYMYKWPVCYP (mask peptide for the TROP2 Fab) [Peptide-48] |
| 0.51 | VDFCALYHWPICYQ (mask peptide for the TROP2 Fab) [Peptide-43] |
| 17.3 | IDFCYRYGWPVCQT (mask peptide for the TROP2 Fab) [Peptide-57] |
| 2.53 | IDFCLLYKWPVCEL (mask peptide for the TROP2 Fab) [Peptide-49] |
| 29.9 | VDFCYRYSWPVCWA (mask peptide for the TROP2 Fab) [Peptide-54] |
| 24.1 | VDFCYQYGWPICSRV (mask peptide for the TROP2 Fab) [Peptide-56] |
| 11.5 | VEFCAIYSWPICKI (mask peptide for the TROP2 Fab) [Peptide-46] |
| 1.54 | VDFCAIYSWPICKI (mask peptide for the TROP2 Fab) [Peptide-50] |
| 7.56 | IDFCRVYDWPVCSL (mask peptide for the TROP2 Fab) [Peptide-53] |

Each binder was assayed against T5, TBD-21 (HC F108A) (assay: competition ELISA, Fab on captured TROP2).
T5 construct: anti-TROP2 Fab, CDR3 HC alanine mutant

| IC50 [µM] | Binder |
| --- | --- |
| 1.27 | VDFCGLYHWPICYQV (mask peptide for the TROP2 Fab) [Peptide-51] |
| 7.75 | VDFCALYHWPVCGL (mask peptide for the TROP2 Fab) [Peptide-61] |
| 9.64 | VDFCALYNWPVCAI (mask peptide for the TROP2 Fab) [Peptide-59] |
| 16.8 | VDFCYKYNWPICSR (mask peptide for the TROP2 Fab) [Peptide-55] |
| 75.2 | VDFCYMYKWPVCYP (mask peptide for the TROP2 Fab) [Peptide-48] |
| 1.04 | VDFCALYHWPICYQ (mask peptide for the TROP2 Fab) [Peptide-43] |
| 88.1 | IDFCYRYGWPVCQT (mask peptide for the TROP2 Fab) [Peptide-57] |
| 8.67 | IDFCLLYKWPVCEL (mask peptide for the TROP2 Fab) [Peptide-49] |
| 161 | VDFCYRYSWPVCWA (mask peptide for the TROP2 Fab) [Peptide-54] |
| 106 | VDFCYQYGWPICSRV (mask peptide for the TROP2 Fab) [Peptide-56] |
| 25.9 | VEFCAIYSWPICKI (mask peptide for the TROP2 Fab) [Peptide-46] |
| 3.7 | VDFCAIYSWPICKI (mask peptide for the TROP2 Fab) [Peptide-50] |
| 22.7 | IDFCRVYDWPVCSL (mask peptide for the TROP2 Fab) [Peptide-53] |

Each binder was assayed against T6, TBD-22 (HC D109A) (assay: competition ELISA, Fab on captured TROP2).
T6 construct: anti-TROP2 Fab, CDR3 HC alanine mutant

| IC50 [µM] | Binder |
| --- | --- |
| 0.01 | VDFCGLYHWPICYQV (mask peptide for the TROP2 Fab) [Peptide-51] |
| 0.26 | VDFCALYHWPVCGL (mask peptide for the TROP2 Fab) [Peptide-61] |
| 0.1 | VDFCALYNWPVCAI (mask peptide for the TROP2 Fab) [Peptide-59] |
| 0.33 | VDFCYKYNWPICSR (mask peptide for the TROP2 Fab) [Peptide-55] |
| 0.31 | VDFCYMYKWPVCYP (mask peptide for the TROP2 Fab) [Peptide-48] |
| 0.05 | VDFCALYHWPICYQ (mask peptide for the TROP2 Fab) [Peptide-43] |
| 1.91 | IDFCYRYGWPVCQT (mask peptide for the TROP2 Fab) [Peptide-57] |
| 0.07 | IDFCLLYKWPVCEL (mask peptide for the TROP2 Fab) [Peptide-49] |
| 3.62 | VDFCYRYSWPVCWA (mask peptide for the TROP2 Fab) [Peptide-54] |
| 3.03 | VDFCYQYGWPICSRV (mask peptide for the TROP2 Fab) [Peptide-56] |
| 0.7 | VEFCAIYSWPICKI (mask peptide for the TROP2 Fab) [Peptide-46] |
| 0.02 | VDFCAIYSWPICKI (mask peptide for the TROP2 Fab) [Peptide-50] |
| 0.59 | IDFCRVYDWPVCSL (mask peptide for the TROP2 Fab) [Peptide-53] |
